Experiment [1] has as its target T1, human HLA-A*0201 molecule (human, UniProt P04439 25-302 at identity 0.94)).
T1 construct: whole, on cells; MHC class I molecule on the surface of T2-0201 cells; also called HLA-A0201 class I molecule
T1 MHC heavy: not shown
Nature of the experiment: MHC stabilization assay, T2-0201 cells, flow cytometry of surface HLA-A0201 (non-peptide 275.7). The text has this: (§1) Next, a binding ability to an HLA-A0201 molecule was actually analyzed by an MHC stabilization assay.

Experiment [2] deals with T1, human HLA-A*0201 molecule. Briefly: binding assay (stabilization assay), T2-0201 cells, flow cytometry (non-peptide 84.50).
Source text: as §1
In general terms: In flow cytometry, cells or beads pass a laser one at a time.

The target of experiment [3] is T1, human HLA-A*0201 molecule. Nature of the experiment: MHC stabilization assay, T2-0201 cells, flow cytometry of surface HLA-A0201.
Source text: as §1

Experiment [4] addresses T1, human HLA-A*0201 molecule. Briefly: binding assay (stabilization assay), T2-0201 cells, flow cytometry.
Source text: as §1

B1: eEF2284-292 peptide (peptide)
peptide: KLPRTFCQL
notes: Synthesized 9-residue peptide of eEF2; also called candidate peptide number 7
B1 returned an MFI in experiment [1] of 449.

B2: eEF2661-669 peptide (peptide)
peptide: ILTDITKGV
notes: Synthesized 9-residue peptide of eEF2; also called candidate peptide number 5
As to B2, in experiment [1], the MFI is 828.

B3: eEF2671-679 peptide (peptide)
peptide: YLNEIKDSV
notes: Synthesized 9-residue peptide of eEF2; also called candidate peptide number 4
Molecule B3 registered an MFI in experiment [1] of 523. In experiment [2], LLLDPIFKV (Modified-type peptide) [eEF2292-300 2L peptide] registered an MIF of 339. The molecule LMLDPIFKL (Modified-type peptide) [eEF2292-300 2M9L peptide] had an MIF in experiment [2] of 275.

B4: eEF2292-300 peptide (peptide)
peptide: LILDPIFKV
notes: Synthesized 9-residue peptide of eEF2; also called candidate peptide number 1
In turn, B4 gave an MIF in experiment [2] of 312. In experiment [1], this molecule came in with an MFI of 781. Further, the “% MFI increase” value in experiment [3] turned out to be 183%. The “% MIF increase” value in experiment [4] was 269%.

On to LLLDPIFKL (Modified-type peptide) [eEF2292-300 2L9L peptide], for which the MIF in experiment [2] is 319. Still for that read-out and setting: for LMLDPIFKV (Modified-type peptide) [eEF2292-300 2M peptide] the value was 313.

B5: eEF2739-747 peptide (peptide)
peptide: RLMEPIYLV
notes: Synthesized 9-residue peptide of eEF2; also called candidate peptide number 2
As to B5, in experiment [1], the MFI was 665.

B6: eEF2519-527 peptide (peptide)
peptide: KLVEGLKRL
notes: Synthesized 9-residue peptide of eEF2; also called candidate peptide number 3
In turn, B6 registered an MFI in experiment [1] of 438.

B7: eEF2394-402 peptide (peptide)
peptide: LMMYISKMV
notes: Synthesized 9-residue peptide of eEF2; also called candidate peptide number 6
The molecule B7 yielded an MFI in experiment [1] of 448.

The values are drawn from patent US20160051652A1 (INTERNATIONAL INSTITUTE OF CANCER IMMUNOLOGY, published 2016).
